Assay [1] concerns the target fused Cp (genetically-fused dimer of the hepatitis B virus core protein assembly domain) (hepatitis B virus). Briefly: native MS; non-covalent ESI-MS of oligomer samples isolated by SEC, button-dialysed into 100 mM ammonium acetate pH 6.8 (fused Cp samples at pH 9.5).
Assay [2] shares this target. Briefly: SEC; pooled peaks 2-4 of the fused Cp disassembly re-run on a 26/60 Superdex-200 column calibrated with molecular weight standards, 1.0 ml/min; masses from the standard curve. In general terms: SEC sorts molecules by how far they enter the pores of the column.

“And” between values parts separate entries of the source, which are not always exact repeats. Identical values can stand only once.

Broadly, the stoichiometry N is the number of molecules, sites or subunits per partner or assembly.

On to “fused Cp (genetically-fused dimer of the hepatitis B virus core protein assembly domain)”, for which the stoichiometry N in assay [1] was 2 and 3; in assay [2], 2 copies and 3 copies and 5 copies.
